Measured values from article PMC7506613.

Biological target: T1, IIA2 peptide (lambda-Cro mutant, helix-turn-helix) (phage lambda (designed mutant)) (UniProt P03040)
T1 sequence: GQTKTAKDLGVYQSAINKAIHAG
Experiment: fluorescence titration (520 nm)
Details: fluorescein-labeled peptide; Fluorescence: 20 uM (so in the source) phosphate buffer, room temperature, 15 min; CD: 20 mM phosphate pH 7.4 (stated for peptide CD), 20 uM each; microarray: PBS …

With “GCAATGGTACGGTACTTCCGGGCTGGCCAGATCAGACCCCGGATGATCATCCTTGTGAGAACCACAAAAGTGCACGCTACTTTGCTAA [SA23 aptamer]” the Kd was 1.64 µM.

In the case of “TCCGGGCTGGCCAGATCAGACCCCGGA [SA23 short2]”, the Kd is reported as 9.61 µM.

TCCGGGG (double strand) [SA23 short1] gave a Kd of 5.81 µM.
